Results from PMC8448959 (ACS chemical biology, 2021).
Like-named read-outs stand apart in the source and are kept apart here. Square brackets hold non-standard residues; d marks the D form. Ends that are not written are not given here. * marks the point of attachment. Lys(Et,iPr) = CCN(CCCC[C@H](N)C(=O)O)C(C)C; 4‑piperidine cap = not defined here; cyclohexyl = C1CCC(*)CC1

T1: CBX7 chromodomain (residues 8-62), C-terminal His-tag (UniProt O95931 8-62)
T1 sequence (looked up): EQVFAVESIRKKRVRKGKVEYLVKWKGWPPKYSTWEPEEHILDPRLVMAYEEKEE

T2: MPP8 chromodomain (residues 55-116), N-terminal His-tag (UniProt Q99549-1 55-116)
T2 sequence (looked up): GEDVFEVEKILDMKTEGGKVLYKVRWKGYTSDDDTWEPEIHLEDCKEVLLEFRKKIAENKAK

T3: CDYL2 chromodomain (residues 1-75), C-terminal His-tag (UniProt Q8N8U2 1-75)
T3 sequence (looked up): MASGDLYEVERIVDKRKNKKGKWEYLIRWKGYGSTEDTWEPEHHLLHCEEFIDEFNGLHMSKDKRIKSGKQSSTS


Tests used:
Experiment in all cases: AlphaScreen or HTRF
[1] = target: T1, CBX7 chromodomain (residues 8-62), …
[2] = target: T2, MPP8 chromodomain (residues 55-116), …
[3] = target: T1, CBX7 chromodomain (residues 8-62), …; remark: listed apart in the source
[4] = target: T2, MPP8 chromodomain (residues 55-116), …; remark: listed apart in the source
[5] = target: T3, CDYL2 chromodomain (residues 1-75), …

Binder | IC50 [1] | IC50 [2] | IC50 [3] | IC50 [4] | IC50 [5]
FAF[Lys(Et,iPr)]S-OMe (not fully specified (N-terminus); also: N-terminal cap R1 not given here) [UNC6263] | 6 µM | 0.9 µM |  |  | 
FAF[Lys(Et,iPr)]S-OMe (not fully specified (N-terminus); also: N-terminal cap R1 not given here) [UNC6257] | 7 µM | 0.4 µM |  |  | 
FAFKS (N-terminal 4-piperidine cap; lysine mimetic with a methyl-cyclopentyl amine; C-terminal methyl ester) [UNC6216] |  |  | > 30 µM | 0.45 µM | 0.09 µM
{4‑piperidine cap}-FAFKS-OMe (reading uncertain; also: lysine mimetic with a piperidine substituent) [UNC6127] |  |  | > 30 µM | 0.7 µM | 0.2 µM
{4‑piperidine cap}-FAFKS-OMe (reading uncertain; also: Lys4: lysine mimetic with a pyrroline substituent) [UNC6262] |  |  | > 30 µM | 1.4 µM | 0.7 µM
FAFKS (N-terminal 4-piperidine cap; lysine mimetic with increased steric bulk on the lysine amine; C-terminal methyl ester) [UNC6254] |  |  | > 30 µM | 0.8 µM | 0.2 µM
{4‑piperidine cap}-FAFK(cyclohexyl)S-OMe (reading uncertain; also: Lys4: lysine mimetic with a cyclohexyl substituent) [UNC6217] |  |  | > 30 µM | 0.4 µM | 0.07 µM
{4‑piperidine cap}-FAFKS-OMe (reading uncertain; also: Lys4: lysine mimetic with a tetrahydropyran substituent) [UNC6218] |  |  | > 30 µM | 0.5 µM | 0.1 µM
